The test deals with hemagglutinin (HA) of influenza virus H3N? A/Env/MPJ193/09 (influenza A virus). Briefly: cell-based or functional assay.

The values that follow come from patent US20190359693A1.

B1: MD2407 (bispecific antibody)
chain: EVQLVESGGGLVQPGGSLRLSCAVSISIFDIYAMDWYRQAPGKQRDLVATSFRDGSTNYADSVKGRFTISRDNAKNTLYLQMNSLKPEDTAVYLCHVSLYRDPLGVAGGMGVYWGKGALVTVSSGGGGSGGGGSEVQLVESGGGLVQAGGSLKLSCAASGRTYAMGWFRQAPGKEREFVAHINALGTRTYYSDSVKGRFTISRDNAKNTEYLEMNNLKPEDTAVYYCTAQGQWRAAPVAVAAEYEFWGQGTQVTVSSGGGGSGGGGSEVQLVESGGGLVQPGGSLRLSCAATGFTLENKAIGWFRQTPGSEREGVLCISKSGSWTYYTDSMRGRFTISRDNAENTVYLQMDSLKPEDTAVYYCATTTAGGGLCWDGTTFSRLASSWGQGTQVTVSSGGGGSGGGGSEVQLVESGGGLVQPGGSLKLSCAASGFTFSTSWMYWLRQAPGKGLEWVSVINTDGGTYYADSVKDRFTISRDNAKDTLYLQMSSLKSEDTAVYYCAKDWGGPEPTRGQGTQVTVSS
For the molecule B1, the average neutralization titer worked out at 24.5 nM.
